According to patent publication US20250019440A1 (Zymeworks, published 2025):
Residue numbers refer to the chain shown, from its start. Names and notes keep the numbering of the source.

Tests used:
Assay in all cases: cell-based or functional assay
CD3 on T cells [1] = molecular target: T1, CD3 on T cells (Homo sapiens (Human), UniProt P07766 23-207; P04234 22-171; P09693 23-182)
PD-L1 on cells = PD-L1 on cells (UniProt Q9NZQ7 19-290, limits assumed)
CD3 on T cells [2] = molecular target: T1, CD3 on T cells; remark: listed apart in the source

T1 sequence (P07766 23-207 limits assumed, chain 1 of 3): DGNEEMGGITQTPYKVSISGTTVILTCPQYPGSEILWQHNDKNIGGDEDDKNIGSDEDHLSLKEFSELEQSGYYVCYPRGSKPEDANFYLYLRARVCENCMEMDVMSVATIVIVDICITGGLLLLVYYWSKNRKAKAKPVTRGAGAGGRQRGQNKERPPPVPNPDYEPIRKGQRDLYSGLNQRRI
T1 sequence (P04234 22-171 limits assumed, chain 2 of 3): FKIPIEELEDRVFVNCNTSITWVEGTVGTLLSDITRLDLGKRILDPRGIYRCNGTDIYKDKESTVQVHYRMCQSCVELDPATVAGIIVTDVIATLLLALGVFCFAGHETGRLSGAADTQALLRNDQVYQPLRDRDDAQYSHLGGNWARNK
T1 sequence (P09693 23-182 limits assumed, chain 3 of 3): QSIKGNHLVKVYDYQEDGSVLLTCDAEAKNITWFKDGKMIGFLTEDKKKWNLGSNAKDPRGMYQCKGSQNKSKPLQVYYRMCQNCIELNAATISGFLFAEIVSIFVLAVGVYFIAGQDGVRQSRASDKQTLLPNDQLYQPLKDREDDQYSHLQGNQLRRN
Chain of PD-L1 on cells (Q9NZQ7 19-290 limits assumed): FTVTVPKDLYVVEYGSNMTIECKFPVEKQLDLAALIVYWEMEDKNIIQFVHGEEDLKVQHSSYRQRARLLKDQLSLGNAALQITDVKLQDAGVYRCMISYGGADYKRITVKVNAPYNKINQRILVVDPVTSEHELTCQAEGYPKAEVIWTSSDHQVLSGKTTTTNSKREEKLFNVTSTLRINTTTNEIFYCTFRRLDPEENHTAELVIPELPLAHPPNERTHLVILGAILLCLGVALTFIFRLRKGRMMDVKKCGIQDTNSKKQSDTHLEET

B1: v39009 (bispecific) (other)
heavy chain 1 (H1): EVQLVESGGGLVQPGGSLRLSCAASGVTFNYYGMSWIRQAPGKGLEWVASITSSGGRIYYPDSVKGRFTISRENTQKTLYLQMNSLRAEDTAVYYCTLDGRDGWVAYWGQGTLVTVSSASTKGPSVFPLAPSSKSTSGGTAALGCLVKDYFPEPVTVSWNSGALTSGVHTFPAVLQSSGLYSLSSVVTVPSSSLGTQTYICNVNHKPSNTKVDKKVEPKSCDKTHTCPPCPAPEAAGGPSVFLFPPKPKDTLMISRTPEVTCVVVSVSHEDPEVKFNWYVDGVEVHNAKTKPREEQYNSTYRVVSVLTVLHQDWLNGKEYKCKVSNKALPAPIEKTISKAKGQPREPQVYVYPPSRDELTKNQVSLTCLVKGFYPSDIAVEWESNGQPENNYKTTPPVLDSDGSFALVSKLTVDKSRWQQGNVFSCSVMHEALHNHYTQKSLSLSPGGGGGSGQVQLVESGGGLVQPGGSLRLSCSVSGIDLSSNPMIWVRQAPGKGLQYIGIIDTDGSTYYADWAKGRFTISKDSTTVYLQINSPRAEDTAVYYCARRLHGSSNGYYDDLWGQGTLVTVSSGGGGSGGGGSGGGGSGGGGSDGQMTQSPSSVSASVGDRVTITCQASQSIYSYLSWYQQKPGQRPKLLIYKASTLASGVPSRFSGSGSGTDFTLTISSVQPEDFATYYCQQGYTVTNVDKNTFGGGTKVEIK
light chain (L1): NFMLTQPHSVSESPGKTVTISCKRNTGNIGSNYVNWYQQHEGSSPTTIIYRNDKRPDGVSDRFSGSIDRSSKSASLTISNLKTEDEADYFCQSYSSGFIFGGGTKLTVLGQPKAAPSVTLFPPSSEELQANKATLVCLISDFYPGAVTVAWKADSSPVKAGVETTTPSKQSNNKYAASSYLSLTPEQWKSHRSYSCQVTHEGSTVEKTVAPTECSGGGGSGDRPWNPPTFSPALLVVTEGDNATFTCSFSNTSESFVLNWYRMSPSNQTDALAAFPEDRSQPGQDARFRVTQLPNGRDFHMSVVRARRNDSGTYLCGAASLAPKAQIKESLRAELRVTE
heavy chain 2 (H2): QVQLVESGGGLVQPGGSLRLSCSVSGIDLSSNPMIWVRQAPGKGLQYIGIIDTDGSTYYADWAKGRFTISKDSTTVYLQINSPRAEDTAVYYCARRLHGSSNGYYDDLWGQGTLVTVSSGGGGSGGGGSGGGGSGGGGSDGQMTQSPSSVSASVGDRVTITCQASQSIYSYLSWYQQKPGQRPKLLIYKASTLASGVPSRFSGSGSGTDFTLTISSVQPEDFATYYCQQGYTVTNVDKNTFGGGTKVEIKAAEPKSSDKTHTCPPCPAPEAAGGPSVFLFPPKPKDTLMISRTPEVTCVVVSVSHEDPEVKFNWYVDGVEVHNAKTKPREEQYNSTYRVVSVLTVLHQDWLNGKEYKCKVSNKALPAPIEKTISKAKGQPREPQVYVLPPSRDELTKNQVSLLCLVKGFYPSDIAVEWESNGQPENNYLTWPPVLDSDGSFFLYSKLTVDKSRWQQGNVFSCSVMHEALHNHYTQKSLSLSPG
For B1, the “EC50 (read off the curve); hybrid PD-1/PD-L1 reporter gene assay, delta RLU, PD-1+ Jurkat T cells with SNU-620 cells, bottom right graph” value (CD3 on T cells [1]) was ~0.05 nM and the “EC50 (read off the curve); hybrid PD-1/PD-L1 reporter gene assay, delta RLU, PD-1+ Jurkat T cells with SNU-620 cells, bottom right graph; v39009 varied in the presence of atezolizumab” value (CD3 on T cells [1]) was ~0.04 nM.

B2: v39000 - A132L (other)
heavy chain 1 (H1): B1 heavy chain 1 (H1)
light chain (L1): NFMLTQPHSVSESPGKTVTISCKRNTGNIGSNYVNWYQQHEGSSPTTIIYRNDKRPDGVSDRFSGSIDRSSKSASLTISNLKTEDEADYFCQSYSSGFIFGGGTKLTVLGQPKAAPSVTLFPPSSEELQANKATLVCLISDFYPGAVTVAWKADSSPVKAGVETTTPSKQSNNKYAASSYLSLTPEQWKSHRSYSCQVTHEGSTVEKTVAPTECS
heavy chain 2 (H2): NPPTFSPALLVVTEGDNATFTCSFSNTSESFVLNWYRMSPSNQTDKLAAFPEDRSQPGQDARFRVTQLPNGRDFHMSVVRARRNDSGTYLCGAISLAPKLQIKESLRAELRVTEGGGGSGQVQLVESGGGLVQPGGSLRLSCSVSGIDLSSNPMIWVRQAPGKGLQYIGIIDTDGSTYYADWAKGRFTISKDSTTVYLQINSPRAEDTAVYYCARRLHGSSNGYYDDLWGQGTLVTVSSGGGGSGGGGSGGGGSGGGGSDGQMTQSPSSVSASVGDRVTITCQASQSIYSYLSWYQQKPGQRPKLLIYKASTLASGVPSRFSGSGSGTDFTLTISSVQPEDFATYYCQQGYTVTNVDKNTFGGGTKVEIKAAEPKSSDKTHTCPPCPAPEAAGGPSVFLFPPKPKDTLMISRTPEVTCVVVSVSHEDPEVKFNWYVDGVEVHNAKTKPREEQYNSTYRVVSVLTVLHQDWLNGKEYKCKVSNKALPAPIEKTISKAKGQPREPQVYVLPPSRDELTKNQVSLLCLVKGFYPSDIAVEWESNGQPENNYLTWPPVLDSDGSFFLYSKLTVDKSRWQQGNVFSCSVMHEALHNHYTQKSLSLSPG
For B2, the “EC50 (read off the curve); hybrid PD-1/PD-L1 reporter gene assay, delta RLU, PD-1+ Jurkat T cells with SNU-620 cells, top right graph; composite signal of CD3 engagement and PD-1:PD-L1 blockade” value (PD-L1 on cells) was ~0.04 nM.

B3: v39001 (bispecific) (other)
heavy chain 1 (H1): B1 heavy chain 1 (H1)
light chain (L1): B2 light chain (L1)
heavy chain 2 (H2): B2 heavy chain 2 (H2) with K46A, I94A, L100A
B3 was tested, and the “EC50 (read off the curve); hybrid PD-1/PD-L1 reporter gene assay, delta RLU, PD-1+ Jurkat T cells with SNU-620 cells, top right graph” value (CD3 on T cells [2]) was ~0.05 nM.

B4: v39004 - A132L (other)
heavy chain 1 (H1): B1 heavy chain 1 (H1)
light chain (L1): B2 light chain (L1)
heavy chain 2 (H2): QVQLVESGGGLVQPGGSLRLSCSVSGIDLSSNPMIWVRQAPGKGLQYIGIIDTDGSTYYADWAKGRFTISKDSTTVYLQINSPRAEDTAVYYCARRLHGSSNGYYDDLWGQGTLVTVSSGGGGSGGGGSGGGGSGGGGSDGQMTQSPSSVSASVGDRVTITCQASQSIYSYLSWYQQKPGQRPKLLIYKASTLASGVPSRFSGSGSGTDFTLTISSVQPEDFATYYCQQGYTVTNVDKNTFGGGTKVEIKAAEPKSSDKTHTCPPCPAPEAAGGPSVFLFPPKPKDTLMISRTPEVTCVVVSVSHEDPEVKFNWYVDGVEVHNAKTKPREEQYNSTYRVVSVLTVLHQDWLNGKEYKCKVSNKALPAPIEKTISKAKGQPREPQVYVLPPSRDELTKNQVSLLCLVKGFYPSDIAVEWESNGQPENNYLTWPPVLDSDGSFFLYSKLTVDKSRWQQGNVFSCSVMHEALHNHYTQKSLSLSPGGGGGSGDRPWNPPTFSPALLVVTEGDNATFTCSFSNTSESFVLNWYRMSPSNQTDKLAAFPEDRSQPGQDARFRVTQLPNGRDFHMSVVRARRNDSGTYLCGAISLAPKLQIKESLRAELRVTE
B4 was tested, and the “EC50 (read off the curve); hybrid PD-1/PD-L1 reporter gene assay, delta RLU, PD-1+ Jurkat T cells with SNU-620 cells, bottom graph; composite signal of CD3 engagement and PD-1:PD-L1 blockade” value (PD-L1 on cells) was ~0.04 nM.
